Assay results published in patent publication US20090118184A1 (UNIVERSITY OF ROCHESTER, published 2009).
Residue numbers refer to the chain shown, from its start.

T1: factor VIIIa A1/A3C1C2 dimer, Glu113Ala (human, UniProt P00451 20-391; P00451 1709-2351)
T1 chain 1: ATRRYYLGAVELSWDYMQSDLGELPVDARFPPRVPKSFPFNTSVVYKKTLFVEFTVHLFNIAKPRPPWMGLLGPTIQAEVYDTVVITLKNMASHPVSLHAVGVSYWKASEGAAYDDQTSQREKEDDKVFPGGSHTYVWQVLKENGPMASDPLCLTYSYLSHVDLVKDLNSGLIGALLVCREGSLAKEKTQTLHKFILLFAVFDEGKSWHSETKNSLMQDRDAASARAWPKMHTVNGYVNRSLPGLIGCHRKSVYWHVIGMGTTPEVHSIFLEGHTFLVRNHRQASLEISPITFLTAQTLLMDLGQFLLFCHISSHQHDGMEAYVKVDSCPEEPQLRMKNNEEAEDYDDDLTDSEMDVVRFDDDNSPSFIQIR
T1 chain 2: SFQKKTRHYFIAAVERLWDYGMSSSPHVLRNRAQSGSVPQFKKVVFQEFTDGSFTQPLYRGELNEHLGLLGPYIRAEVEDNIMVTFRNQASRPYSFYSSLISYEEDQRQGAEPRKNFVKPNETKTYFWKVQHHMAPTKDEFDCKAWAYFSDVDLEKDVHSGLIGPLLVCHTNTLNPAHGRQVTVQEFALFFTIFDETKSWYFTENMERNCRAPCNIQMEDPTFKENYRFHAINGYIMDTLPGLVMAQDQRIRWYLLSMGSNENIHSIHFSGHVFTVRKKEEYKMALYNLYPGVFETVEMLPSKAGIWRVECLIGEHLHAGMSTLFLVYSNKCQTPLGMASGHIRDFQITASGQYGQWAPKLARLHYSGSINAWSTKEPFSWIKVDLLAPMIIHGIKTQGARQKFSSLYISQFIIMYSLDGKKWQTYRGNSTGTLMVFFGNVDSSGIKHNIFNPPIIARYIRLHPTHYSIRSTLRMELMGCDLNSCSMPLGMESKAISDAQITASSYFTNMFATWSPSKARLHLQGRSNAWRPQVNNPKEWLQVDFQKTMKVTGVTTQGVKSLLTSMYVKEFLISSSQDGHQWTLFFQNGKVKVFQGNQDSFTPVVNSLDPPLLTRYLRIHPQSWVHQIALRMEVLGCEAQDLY

T2: factor VIIIa A1/A3C1C2 dimer, Glu1984Val (human, UniProt P00451 20-391; P00451 1709-2351)
T2 sequence 1: T1 chain 1 with A113E
T2 sequence 2: T1 chain 2 with E295V

T3: factor VIIIa A1/A3C1C2 dimer, wild type (human, UniProt P00451 20-391; P00451 1709-2351)
T3 sequence 1: T1 chain 1 with A113E
T3 sequence 2: T1 chain 2

T4: factor VIIIa A1/A3C1C2 dimer, Glu1984Ala (human, UniProt P00451 20-391; P00451 1709-2351)
T4 sequence 1: T1 chain 1 with A113E
T4 sequence 2: T1 chain 2 with E295A

B1: factor VIIIa A2 subunit, Asp519Ala (other)
chain: SVAKKHPKTWVHYIAAEEEDWDYAPLVLAPDDRSYKSQYLNNGPQRIGRKYKKVRFMAYTDETFKTREAIQHESGILGPLLYGEVGDTLLIIFKNQASRPYNIYPHGITDVRPLYSRRLPKGVKHLKDFPILPGEIFKYKWTVTVEAGPTKSDPRCLTRYYSSFVNMERDLASGLIGPLLICYKESVDQRGNQIMSDKRNVILFSVFDENRSWYLTENIQRFLPNPAGVQLEDPEFQASNIMHSINGYVFDSLQLSVCLHEVAYWYILSIGAQTDFLSVFFSGYTFKHKMVYEDTLTLFPFSGETVFMSMENPGLWILGCHNSDFRNRGMTALLKVSSCDKNTGDYYEDSYEDISAYLLSKNNAIEPR
B2: factor VIIIa A2 subunit, Asp519Val (other)
chain: B1 chain with A147V
B3: factor VIIIa A2 subunit, Glu665Ala (other)
chain: B1 chain with A147D, E293A

Columns and labels:
Assay in all cases: cell-based or functional assay
[1] = target: T1, factor VIIIa A1/A3C1C2 dimer, Glu113Ala
[2] = target: T2, factor VIIIa A1/A3C1C2 dimer, Glu1984Val
[3] = target: T3, factor VIIIa A1/A3C1C2 dimer, wild type
[4] = target: T4, factor VIIIa A1/A3C1C2 dimer, Glu1984Ala
[5] = target: T3, factor VIIIa A1/A3C1C2 dimer, wild type; remark: listed apart in the source
[6] = target: T2, factor VIIIa A1/A3C1C2 dimer, Glu1984Val; remark: listed apart in the source
[7] = target: T4, factor VIIIa A1/A3C1C2 dimer, Glu1984Ala; remark: listed apart in the source

Row | Binder | Decay rate relative to wild type, Factor VIIIa (1.5 nM, factor IXa absent) [1] | Decay rate, Factor VIIIa (1.5 nM factor VIIIa, factor IXa absent) [1] | Decay rate relative to wild type, Factor VIIIa (1.5 nM, factor IXa absent) [2] | Decay rate, Factor VIIIa (1.5 nM factor VIIIa, factor IXa absent) [2] | Decay rate relative to wild type, Factor VIIIa (1.5 nM, factor IXa absent) [3] | Decay rate, Factor VIIIa (1.5 nM factor VIIIa, factor IXa absent) [3] | Decay rate relative to wild type, Factor VIIIa (1.5 nM, factor IXa absent) [4] | Decay rate, Factor VIIIa (1.5 nM factor VIIIa, factor IXa absent) [4] | Factor VIIIa Decay relative to the WT value, Factor IXa absent [5] | Factor VIIIa Decay relative to the WT value, Factor IXa present [5] | Factor VIIIa Decay, Factor IXa absent [5] | Factor VIIIa Decay, Factor IXa present [5] | factor VIIIa decay rate relative to the better single mutation of the pairing [6] | factor VIIIa decay rate relative to the better single mutation of the pairing [7]
1 | B1 | 0.53 relative to wild type | 0.0748 min⁻¹ | 0.23 relative to wild type | 0.0319 min⁻¹ | 0.64 relative to wild type | 0.0898 min⁻¹ | 0.19 relative to wild type | 0.0266 min⁻¹ | 0.66 relative to WT | 0.41 relative to WT | 0.0556 min⁻¹ | 0.0063 min⁻¹ | – | –
2 | B2 | 0.35 relative to wild type | 0.0495 min⁻¹ | 0.19 relative to wild type | 0.0262 min⁻¹ | 0.6 relative to wild type | 0.0836 min⁻¹ | 0.12 relative to wild type | 0.0168 min⁻¹ | 0.77 relative to WT | 0.44 relative to WT | 0.0642 min⁻¹ | 0.0068 min⁻¹ | – | –
3 | B3 | 0.54 relative to wild type | 0.0754 min⁻¹ | 0.9 relative to wild type | 0.127 min⁻¹ | 0.6 relative to wild type | 0.0834 min⁻¹ | 0.93 relative to wild type | 0.13 min⁻¹ | 0.62 relative to WT | 0.51 relative to WT | 0.052 min⁻¹ | 0.0078 min⁻¹ | ~2.7 fold | ~2.2 fold
